# Measurements: patent US20240270846A1 (published 2024)
# Target: T1, CD3 epsilon homodimer protein (UniProt P07766 23-126)
# T1 construct: also called CD3 (CD3 epsilon)
# Assay: SPR Biacore T200, CD3 epsilon homodimer on chip, antibody as analyte;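 also: homodimer amine-coupled to a CM4 sensor chip, run at 25 °C in HBS-EP+ buffer, with kinetic parameters derived in Biacore T200 Evaluation Software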
# T1 sequence (P07766 23-126): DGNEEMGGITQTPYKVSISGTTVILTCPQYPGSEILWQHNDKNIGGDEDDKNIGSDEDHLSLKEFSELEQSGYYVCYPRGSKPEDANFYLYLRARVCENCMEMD
row,KD ratio (KD of CE115HA000 / KD of altered form),Binder
1,0.82,"CE115HA000 H chain altered form N54K (antibody, human IgG1, kappa, L234A L235A, N297A, name in Kabat numbering, one-arm antibody) heavy: QVQLVESGGGVVQPGRSLRLSCAASGFTFSNAWMHWVRQAPGKGLEWVAQIKAKSNKYATYYAESVKGRFTISRDDSKNSLYLQMNSLKTEDTAVYYCRYVHYGAYYGVDAWGQGTTVTVSSASTKGPSVFPLAPSSKSTSGGTAALGCLVKDYFPEPVTVSWNSGALTSGVHTFPAVLQSSGLYSLSSVVTVPSSSLGTQTYICNVNHKPSNTKVDKKVEPKSCDKTHTCPPCPAPEAAGGPSVFLFPPKPKDTLMISRTPEVTCVVVDVSHEDPEVKFNWYVDGVEVHNAKTKPREEQYASTYRVVSVLTVLHQDWLNGKEYKCKVSNKALPAPIEKTISKAKGQPREPQVYTLPPSRCELTKNQVSLSCAVKGFYPSDIAVEWESNGQPENNYKTTPPVLDSDGSFFLVSKLTVDKSRWQQGNVFSCSVMHEALHNHYTQKSLSLSPDYKDDDDK EPKSSDKTHTCPPCPAPELLGGPSVFLFPPKPKDTLMISRTPEVTCVVVDVSHEDPEVKFNWYVDGVEVHNAKTKPREEQYNSTYRVVSVLTVLHQDWLNGKEYKCKVSNKALPAPIEKTISKAKGQPREPQVCTLPPSRDELTKNQVSLWCLVKGFYPSDIAVEWESNGQPENNYKTTPPVLDSDGSFFLYSKLTVDKSRWQQGNVFSCSVMHEALHNRYTQKSLSLSP light: DIVMTQSPLSLPVTPGEPASISCRSSQSLVHSNRNTYLHWYQQKPGQAPRLLIYKVSNRFSGVPDRFSGSGSGTDFTLKISRVEAEDVGVYYCGQGTQVPYTFGQGTKLEIKRTVAAPSVFIFPPSDEQLKSGTASVVCLLNNFYPREAKVQWKVDNALQSGNSQESVTEQDSKDSTYSLSSTLTLSKADYEKHKVYACEVTHQGLSSPVTKSFNRGEC"
2,0.91,"CE115HA000 H chain altered form N54L (antibody, human IgG1, kappa, L234A L235A, N297A, name in Kabat numbering, one-arm antibody) heavy: QVQLVESGGGVVQPGRSLRLSCAASGFTFSNAWMHWVRQAPGKGLEWVAQIKAKSNLYATYYAESVKGRFTISRDDSKNSLYLQMNSLKTEDTAVYYCRYVHYGAYYGVDAWGQGTTVTVSSASTKGPSVFPLAPSSKSTSGGTAALGCLVKDYFPEPVTVSWNSGALTSGVHTFPAVLQSSGLYSLSSVVTVPSSSLGTQTYICNVNHKPSNTKVDKKVEPKSCDKTHTCPPCPAPEAAGGPSVFLFPPKPKDTLMISRTPEVTCVVVDVSHEDPEVKFNWYVDGVEVHNAKTKPREEQYASTYRVVSVLTVLHQDWLNGKEYKCKVSNKALPAPIEKTISKAKGQPREPQVYTLPPSRCELTKNQVSLSCAVKGFYPSDIAVEWESNGQPENNYKTTPPVLDSDGSFFLVSKLTVDKSRWQQGNVFSCSVMHEALHNHYTQKSLSLSPDYKDDDDK EPKSSDKTHTCPPCPAPELLGGPSVFLFPPKPKDTLMISRTPEVTCVVVDVSHEDPEVKFNWYVDGVEVHNAKTKPREEQYNSTYRVVSVLTVLHQDWLNGKEYKCKVSNKALPAPIEKTISKAKGQPREPQVCTLPPSRDELTKNQVSLWCLVKGFYPSDIAVEWESNGQPENNYKTTPPVLDSDGSFFLYSKLTVDKSRWQQGNVFSCSVMHEALHNRYTQKSLSLSP light: DIVMTQSPLSLPVTPGEPASISCRSSQSLVHSNRNTYLHWYQQKPGQAPRLLIYKVSNRFSGVPDRFSGSGSGTDFTLKISRVEAEDVGVYYCGQGTQVPYTFGQGTKLEIKRTVAAPSVFIFPPSDEQLKSGTASVVCLLNNFYPREAKVQWKVDNALQSGNSQESVTEQDSKDSTYSLSSTLTLSKADYEKHKVYACEVTHQGLSSPVTKSFNRGEC"
